# Measured values from patent CN101151278A.
# T1: 可溶性CD20 (Genentech) (UniProt P11836)
# T1 sequence (looked up): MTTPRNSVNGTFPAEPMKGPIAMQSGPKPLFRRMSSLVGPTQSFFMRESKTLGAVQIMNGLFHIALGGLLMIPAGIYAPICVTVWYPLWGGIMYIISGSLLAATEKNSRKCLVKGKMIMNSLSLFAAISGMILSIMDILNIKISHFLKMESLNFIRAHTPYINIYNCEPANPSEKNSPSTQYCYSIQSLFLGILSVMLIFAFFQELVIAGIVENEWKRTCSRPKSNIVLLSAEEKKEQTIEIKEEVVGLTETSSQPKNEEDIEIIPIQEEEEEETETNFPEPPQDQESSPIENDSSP
# T2: CD20 on WIL2-S cells (human) (UniProt P11836)
# T2 sequence (looked up): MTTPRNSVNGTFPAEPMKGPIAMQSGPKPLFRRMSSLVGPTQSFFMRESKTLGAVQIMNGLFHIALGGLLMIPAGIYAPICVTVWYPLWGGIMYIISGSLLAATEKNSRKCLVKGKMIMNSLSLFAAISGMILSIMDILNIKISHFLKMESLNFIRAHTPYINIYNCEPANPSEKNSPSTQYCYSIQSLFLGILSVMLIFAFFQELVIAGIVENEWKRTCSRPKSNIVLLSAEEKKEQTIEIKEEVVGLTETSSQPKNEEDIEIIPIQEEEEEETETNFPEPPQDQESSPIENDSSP
# Assays:
# 可溶性CD20 (Genentech) = target: T1, 可溶性CD20 (Genentech); assay: ELISA, soluble CD20 coated on plate
# [1] = target: T2, CD20 on WIL2-S cells (human); assay: cell ELISA, WIL2-S; ratio vs chimeric 2H7.v6.8
fold increase in binding (vs 2H7.v16 and 2H7.v588) (可溶性CD20 (Genentech)),相对结合 [1],Binder
90 fold,–,"hu2H7.v511 (antibody, human IgG1, kappa, V domains shown) VH: EVQLVESGGGLVQPGGSLRLSCAASGYTFTSYNMHWVRQAPGKGLEWVGAIYPGNGATSYNQKFKGRFTISVDKSKNTLYLQMNSLRAEDTAVYYCARVVYYSYRYWYFDVWGQGTLVTVSS VL: DIQMTQSPSSLSASVGDRVTITCRASSSVSYLHWYQQKPGKAPKPLIYAPSNLASGVPSRFSGSGSGTDFTLTISSLQPEDFATYYCQQWAFNPPTFGQGTKVEIKR"
–,0.21,"2H7.v4 (antibody, IgG1, V domains shown) VH: EVQLVESGGGLVQPGGSLRLSCAASGYTFTSYNMHWVRQAPGKGLEWVAAIYPGNGDTSYNQKFKGRFTISVDNSKNTLYLQMNSLRAEDTAVYYCARVVYYSNSYWYFDVWGQGTLVTVSS VL: DIQMTQSPSSLSASVGDRVTITCRASSSVSYMHWYQQKPGKAPKLLIYAPSNLASGVPSRFSGSGSGTDFTLTISSLQPEDFATYYCQQWSFNPPTFGQGTKVEIKR"
–,0.01,"人源化2H7型式2 (2H7.v2) (antibody, IgG1, V domains shown) VH: EVQLVESGGGLVQPGGSLRLSCAASGYTFTSYNMHWVRQAPGKGLEWVAAIYPGNGDTSYNQKFKGRFTISRDNSKNTLYLQMNSLRAEDTAVYYCARVVYYSNSYWYFDVWGQGTLVTVSS VL: DIQMTQSPSSLSASVGDRVTITCRASSSVSYMHWYQQKPGKAPKLLIYAPSNLASGVPSRFSGSGSGTDFTLTISSLQPEDFATYYCQQWSFNPPTFGQGTKVEIKR"
–,0.21,"2H7.v3 (antibody, IgG1, V domains shown) VH: EVQLVESGGGLVQPGGSLRLSCAASGYTFTSYNMHWVRQAPGKGLEWVAAIYPGNGDTSYNQKFKGRFTISVDKSKNTLYLQMNSLRAEDTAVYYCARVVYYSNSYWYFDVWGQGTLVTVSS VL: DIQMTQSPSSLSASVGDRVTITCRASSSVSYMHWYQQKPGKAPKLLIYAPSNLASGVPSRFSGSGSGTDFTLTISSLQPEDFATYYCQQWSFNPPTFGQGTKVEIKR"
